US20230242592A1, “IDENTIFICATION OF […] PEPTIDES AND USES THEREOF” (priority 2020, published 2023)

What was measured:
[1] = system: SARS-CoV-2 spike protein pseudotyped lentivirus; assay: SARS-CoV-2 spike pseudotyped lentivirus infection of ACE2-HEK293 cells (luciferase); type: cell-based; details: 0.33 uM
[2] = target: SARS-CoV-2 spike RBD (Severe acute respiratory syndrome coronavirus 2, UniProt P0DTC2)
[3] = target: interaction between RBD and the neutralizing antibody (Severe acute respiratory syndrome coronavirus 2, UniProt P0DTC2); details: read-out: IC50 of inhibiting interaction between RBD and the neutralizing antibody
[4] = system: ACE2-HEK293 cells; assay: Trypan blue toxicity in ACE2-HEK293 cells in the presence of virus; details: different concentrations; viability ca. 50%

ACE2 was tested, and the “inhibition of pseudotyped virus infection” value [1] was “virtually complete inhibition”, the “RMax, binding to RBD” value [2] was 0.5785 ± 0.01557 and the Kd ([2]; read-out: dissociation constant / binding affinity with RBD) was about 3 nM. The IC50 [3] was 30 to 35 nM and the “change in cell viability in the presence of virus” value [4] was “did not result in statistically significant changes in cell viability”.
